In article PMC5794981 one finds stoichiometry N data, which are given here for one substance.

As usually defined, the stoichiometry N is a count of units in the complex or per binding partner.

The target of this assay is aflibercept (Eylea) (human). Put plainly: SEC; Superdex 200 Increase 10/300 GL, aflibercept diluted in PBS to 8 mg/ml, 77 ul injected, 25 °C; samples stored 0, 7 or 28 days. In general terms: Size exclusion chromatography separates by hydrodynamic size, large species first.

aflibercept (Eylea) (Fc fusion), sequence (chain): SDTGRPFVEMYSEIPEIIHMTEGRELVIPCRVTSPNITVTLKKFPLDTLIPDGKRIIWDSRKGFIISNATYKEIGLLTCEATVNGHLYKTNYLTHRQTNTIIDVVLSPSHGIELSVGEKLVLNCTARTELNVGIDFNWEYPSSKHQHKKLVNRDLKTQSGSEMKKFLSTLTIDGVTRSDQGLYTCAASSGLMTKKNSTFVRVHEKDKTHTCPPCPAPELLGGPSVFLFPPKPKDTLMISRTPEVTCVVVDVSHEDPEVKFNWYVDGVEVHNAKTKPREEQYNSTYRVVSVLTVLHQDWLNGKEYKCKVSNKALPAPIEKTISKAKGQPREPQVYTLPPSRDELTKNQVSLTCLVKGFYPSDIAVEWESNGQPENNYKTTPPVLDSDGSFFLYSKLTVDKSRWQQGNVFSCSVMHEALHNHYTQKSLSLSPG

Substance aflibercept (Eylea) (Fc fusion) came in with a stoichiometry N of 2.
